18 molecules from patent publication US20250304658A1 (ICAHN SCHOOL OF MEDICINE AT MOUNT SINAI, published 2025) can be followed below.

Numbering of substitutions follows the chain as printed. Where “and” joins values, the source holds several entries; their conditions need not be identical. Identical values can stand only once. Bounds are passed on as bounds.

T1: BK virus VP1 protein, genotype I (BK virus, UniProt P03088 1-362)
T1 sequence: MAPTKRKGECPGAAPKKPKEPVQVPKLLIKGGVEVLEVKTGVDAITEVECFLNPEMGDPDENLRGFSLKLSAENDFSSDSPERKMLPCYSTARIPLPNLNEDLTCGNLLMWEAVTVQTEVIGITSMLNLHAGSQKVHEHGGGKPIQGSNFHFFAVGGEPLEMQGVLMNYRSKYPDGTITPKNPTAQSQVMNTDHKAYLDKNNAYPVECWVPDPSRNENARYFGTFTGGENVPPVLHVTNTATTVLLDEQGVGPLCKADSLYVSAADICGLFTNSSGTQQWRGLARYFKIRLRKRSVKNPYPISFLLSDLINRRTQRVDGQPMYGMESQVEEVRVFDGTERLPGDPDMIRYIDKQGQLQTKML

B1: 7H8 (antibody, V domains shown)
VH: EVQLLESGGGLVQPGGSLRLSCAASGFAFHTYDMTWVRQAPGKGLEWVSGVVGSGINTYYADSVKGRFTISRDNSKSTLYLQMNSLRAEDTAVYYCAKDSSSWFSLHYWGQGTLVTVSS
VL: DIQMTQSPSTLSASVGDRVTITCRASQSISNWLAWYQQKPGKAPKLLIYKASSLESGVPSRFSGSGSGTDFTLTISSLQPDDFASYYCQQYRSYAYTFGQGTKLEIT
B2: 7A4 (antibody, V domains shown)
VH: QVQLVESGGDLVKPGGSLRLSCVASGFTFSDYYMNWIRLPPGKGLEWISYIDSSAGAIYYADSVKGRFTVSRDDAKNSLFLHMNSLRADDTAVYYCVRERRDGHKIFDYWGPGTLVTVSS
VL: DIVMTQSPDSLAVSLGERATINCKSSQNILYSSNNKNYLAWYQQKAGQPPKLLIFWSSIRESGVPDRFSGSGSGTDFTLTISSLQAEDVAVYYCQQYYSSPYNFGRGTTLEIK
B3: 1H10 (antibody, V domains shown)
VH: B2 VH with Q3H, L39M, S85N, V97A, Y109C
VL: B2 VL with I59T
B4: 9B4 (antibody, V domains shown)
VH: B2 VH with V97A, D102E, Y109F
VL: B2 VL with V13L, W41C, I59T
B5: 2F7 (antibody, V domains shown)
VH: B2 VH with D10G, K43R, E46Q, F80Y, H82Q, V97A, Y109W, P112Q
VL: B2 VL with S32T, A40G, F55Y, I59T, E61N, Q95H, N103T, R106Q, T109N
B6: 8D10 (antibody, V domains shown)
VH: B2 VH with Q3H, L79M, V97A
VL: B2 VL with I59T
B7: 5A8 (antibody, V domains shown)
VH: B2 VH with K43R, N77K, H82Y, V97A
VL: B2 VL with I59T, Q95H
B8: 4F7 (antibody, V domains shown)
VH: B2 VH with S85N, V97A, Y109C
VL: B2 VL with I59T
B9: 1E2 (antibody, V domains shown)
VH: B2 VH with I48V, K65R, V97A, Y109C
VL: B2 VL with I59T, S82N
B10: 8A11 (antibody, V domains shown)
VH: B2 VH with I58T, D89E, V97A, D102S, Y109C
VL: B2 VL with I59T
B11: 14F5 (antibody, V domains shown)
VH: EVQLLESGGGLVQPGGSLRLSCAVSGFTFSSFAMSWVRQAPGKGLEWVSGISASGGTTNYADSVKGRFTISRDNSKNTLYLQMSSLRAEDTAEYYCAKDRFLEWVEGFDPWGQGILVTVSP
VL: DIQMTQSPSSLSASVGDRVTITCRASQSIGRFLIWYQQKPGKAPKLLLYATSSLQSGVPARFTGSGSGTDFTLTIGSLQPEDFATYYCQQSYITPLTFGGGTKVEIK
B12: 15C10 (antibody, V domains shown)
VH: B11 VH with V24A
VL: B11 VL
B13: 9G9 (antibody, V domains shown)
VH: EVQLLESGGGLVQPGGSLRLSCAASGFTFHNYAMSWVRQAPGKGLEWVSGISGSGGTAYYADSVKGRFTISRDNSKNTLYLQMNSLRADDTALYYCAKDRFLEWVEGFDSWGQGTLVTVSS
VL: B11 VL with R31S, L48I, T51A, A60S, T63S, T74I, G76S, I93N
B14: 7E5 (antibody, V domains shown)
VH: EVQLLESGGGLIQPGGSLRLSCAASGFTFSGFAMSWVRQAPGKGLEWVSGISGSGDITYYGDSVKGRFTISRDNSKSTLYLQMNSLRDADTAVYYCGKDPYNWNHGVYGMDVWGQGTTVTVSS
VL: DIQMTQSPSSLSASVGDRVTITCRASQSISTYLNWYQQKPGKAPKFLIYGASSLQSGVPSRFSGSGSGTDFSLTISSLHPGDFATYYCQQSYNIPLTFGGGTKVEIK
B15: 4E6 (antibody, V domains shown)
VH: EVQLVESGGDLVQPGRSLRLSCAASGFTFDDYAMHWVRQGPGKGLEWVSGISWSGVTMGYADSVKGRFTISRDNAKNSLYLRMNSLRADDTAFYYCARGDGTNAFDIWGHGTMVTVSS
VL: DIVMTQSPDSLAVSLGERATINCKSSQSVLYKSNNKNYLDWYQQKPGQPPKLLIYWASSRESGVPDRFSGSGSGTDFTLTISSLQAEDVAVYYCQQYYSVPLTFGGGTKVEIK
B16: 6H12 (antibody, V domains shown)
VH: EVQLVESGGGLVQPGGSLRLSCAASGFTFSSYEMNWVRQAPGKGLEWVSYISSGGSSIKYADSVRGRFAFSRDNAENSVHLQMNSLRAEDTAVYYCARVGGSYYYSYAMDVWGQGTAVTVSS
VL: DIQLTQSPSFLSASVGDRVTITCWASQDISSYLAWYQQKPGKAPKLLIYAASTLQSGVPSRFTGSGSGTEFTLTISSLQPEDFATYYCQQPHNSPFSFGPGTKVDVK
B17: 11D12 (antibody, V domains shown)
VH: B16 VH with A69T, H80F, A88G
VL: B16 VL with T63S, H92N, S94Y
B18: 2H1 (antibody, V domains shown)
VH: B2 VH with V97A, Y109C
VL: B2 VL with A46T, I59T

The target of the first test is BK virus VP1 protein, genotype III (BK virus). Nature of the test: cell-based or functional assay.
Take B1: the “EC50, pseudovirus neutralization” value stood at 0.0334 nM.

Turning to B2, the “EC50, pseudovirus neutralization” value is 0.0081 nM.

As for B3, the “EC50, pseudovirus neutralization” value came to 0.0397 nM.

Regarding B4, the “EC50, pseudovirus neutralization” value is 0.0118 nM.

B5: the “EC50, pseudovirus neutralization” value came out at 0.0022 nM.

On to B6, for which the “EC50, pseudovirus neutralization” value is 0.029 nM.

Consider B7, for which the “EC50, pseudovirus neutralization” value was found to be 0.0039 nM.

In the case of B8, the “EC50, pseudovirus neutralization” value turned out to be 0.0143 nM.

For B9, the “EC50, pseudovirus neutralization” value amounted to 0.0081 nM.

Take B10: the “EC50, pseudovirus neutralization” value worked out at 0.0315 nM.

As for B11, the “EC50, pseudovirus neutralization” value was determined as 0.0215 nM.

For the molecule B12, the “EC50, pseudovirus neutralization” value was 0.0211 nM.

Regarding B13, the “EC50, pseudovirus neutralization” value turned out to be 1.7 nM.

As to B14, the “EC50, pseudovirus neutralization” value was 0.415 nM.

In the case of B15, the “EC50, pseudovirus neutralization” value was determined as 0.0296 nM.

Take B16: the “EC50, pseudovirus neutralization” value worked out at 0.127 nM.

In the case of B17, the “EC50, pseudovirus neutralization” value came out at 6.38 nM.

For a further test, the target named is BK virus VP1 protein, genotype II (BK virus). Nature of the test: cell-based or functional assay.
With B1, the “EC50, pseudovirus neutralization” value came out at 0.05 nM.

As for B2, the “EC50, pseudovirus neutralization” value turned out to be 0.0132 nM.

As to B3, the “EC50, pseudovirus neutralization” value stood at 0.0028 nM.

Regarding B4, the “EC50, pseudovirus neutralization” value was determined as 0.0152 nM.

In the case of B5, the “EC50, pseudovirus neutralization” value turned out to be 0.0011 nM.

In the case of B6, the “EC50, pseudovirus neutralization” value stood at 0.0492 nM.

As for B7, the “EC50, pseudovirus neutralization” value was 0.0009 nM.

Regarding B8, the “EC50, pseudovirus neutralization” value is 0.0319 nM.

As for B9, the “EC50, pseudovirus neutralization” value turned out to be 0.0332 nM.

As to B10, the “EC50, pseudovirus neutralization” value was 0.0014 nM.

As to B11, the “EC50, pseudovirus neutralization” value stood at 0.0131 nM.

In the case of B12, the “EC50, pseudovirus neutralization” value was 0.0131 nM.

For the molecule B13, the “EC50, pseudovirus neutralization” value came out at 0.0032 nM.

B14: the “EC50, pseudovirus neutralization” value came to 1.16 nM.

As to B15, the “EC50, pseudovirus neutralization” value amounted to 0.0021 nM.

B16: the “EC50, pseudovirus neutralization” value amounted to 0.0109 nM.

Regarding B17, the “EC50, pseudovirus neutralization” value stood at 0.0095 nM.

The target of another test is T1, BK virus VP1 protein, genotype I. Nature of the test: cell-based or functional assay.
With B14, the “EC50, pseudovirus neutralization” value is 0.0249 nM.

Regarding B15, the “EC50, pseudovirus neutralization” value was over 6.67 nM.

A further test concerns the target BK virus VP1 protein, genotype IV (BK virus). Nature of the test: cell-based or functional assay.
Consider B1, for which the “EC50, pseudovirus neutralization” value was 0.0943 nM.

As for B2, the “EC50, pseudovirus neutralization” value was found to be 0.0251 nM.

For the molecule B3, the “EC50, pseudovirus neutralization” value amounted to 0.107 nM.

Consider B4, for which the “EC50, pseudovirus neutralization” value turned out to be 0.0118 nM.

Turning to B5, the “EC50, pseudovirus neutralization” value is 0.0724 nM.

Turning to B6, the “EC50, pseudovirus neutralization” value was 0.0894 nM.

As to B7, the “EC50, pseudovirus neutralization” value was determined as 0.0774 nM.

With B8, the “EC50, pseudovirus neutralization” value amounted to 0.0416 nM.

Turning to B18, the “EC50, pseudovirus neutralization” value was 0.0728 nM and 0.0815 nM.

For B9, the “EC50, pseudovirus neutralization” value is 0.143 nM.

Regarding B10, the “EC50, pseudovirus neutralization” value worked out at 0.0948 nM.

For B11, the “EC50, pseudovirus neutralization” value was 0.0671 nM.

Regarding B12, the “EC50, pseudovirus neutralization” value was 0.0423 nM.

Regarding B13, the “EC50, pseudovirus neutralization” value came to 0.11 nM.

Turning to B14, the “EC50, pseudovirus neutralization” value was determined as 0.133 nM.

As for B15, the “EC50, pseudovirus neutralization” value came out at 0.0197 nM.

Take B16: the “EC50, pseudovirus neutralization” value amounted to 2.21 nM.

As to B17, the “EC50, pseudovirus neutralization” value is over 6.67 nM.

The next test addresses BK virus VP1 protein, genotype III (BK virus). In words: cell-based or functional assay. This is another data set of the same source.
B12: the “EC50, pseudovirus neutralization” value is 0.00186 nM.

Regarding B13, the “EC50, pseudovirus neutralization (mAb mixed with irrelevant isotype matched mAb M2)” value is 1.29 nM.

Regarding B16, the “EC50, pseudovirus neutralization (mAb mixed with irrelevant isotype matched mAb M2)” value is 0.172 nM.

A further test concerns the target BK virus VP1 protein, genotype II (BK virus). Nature of the test: cell-based or functional assay. This is another data set of the same source.
Take B12: the “EC50, pseudovirus neutralization” value stood at 0.00058 nM.

B13: the “EC50, pseudovirus neutralization (mAb mixed with irrelevant isotype matched mAb M2)” value amounted to 0.0023 nM.

On to B16, for which the “EC50, pseudovirus neutralization (mAb mixed with irrelevant isotype matched mAb M2)” value came to 0.0024 nM.

The next test addresses BK virus VP1 protein, genotype IV (BK virus). In words: cell-based or functional assay. This is another data set of the same source.
Regarding B12, the “EC50, pseudovirus neutralization” value came out at 0.0023 nM.

Turning to B13, the “EC50, pseudovirus neutralization (mAb mixed with irrelevant isotype matched mAb M2)” value stood at 0.196 nM.

As to B16, the “EC50, pseudovirus neutralization (mAb mixed with irrelevant isotype matched mAb M2)” value came out at 0.944 nM.
